Data: PMC10516938, “Conformational dynamics of cohesin/Scc2 loading complex are regulated by Smc3 acetylation and ATP binding” (Nature Communications, 2023)
Where a chain is given by its changes, count along the chain named.

Assays:
Smc3^QQ R1008I Q67C = target: T1, Smc3^QQ R1008I Q67C (S. cerevisiae, UniProt P47037 1-1230, Q67C | K112Q | K113Q | R1008I); test: cross-linking; in vivo BMOE cross-link of cysteine pairs in yeast cells arrested in late G1 by non-degradable Sic1(9m); Scc1-PK immunoprecipitated, western blot, band intensities quantified; details: partners not purified
T1 construct: Smc3, S. cerevisiae; also called smc3-QQ Q67C with R1008I; source: S. cerevisiae W303, late G1 arrested cells, whole-cell extract
T1 sequence (looked up): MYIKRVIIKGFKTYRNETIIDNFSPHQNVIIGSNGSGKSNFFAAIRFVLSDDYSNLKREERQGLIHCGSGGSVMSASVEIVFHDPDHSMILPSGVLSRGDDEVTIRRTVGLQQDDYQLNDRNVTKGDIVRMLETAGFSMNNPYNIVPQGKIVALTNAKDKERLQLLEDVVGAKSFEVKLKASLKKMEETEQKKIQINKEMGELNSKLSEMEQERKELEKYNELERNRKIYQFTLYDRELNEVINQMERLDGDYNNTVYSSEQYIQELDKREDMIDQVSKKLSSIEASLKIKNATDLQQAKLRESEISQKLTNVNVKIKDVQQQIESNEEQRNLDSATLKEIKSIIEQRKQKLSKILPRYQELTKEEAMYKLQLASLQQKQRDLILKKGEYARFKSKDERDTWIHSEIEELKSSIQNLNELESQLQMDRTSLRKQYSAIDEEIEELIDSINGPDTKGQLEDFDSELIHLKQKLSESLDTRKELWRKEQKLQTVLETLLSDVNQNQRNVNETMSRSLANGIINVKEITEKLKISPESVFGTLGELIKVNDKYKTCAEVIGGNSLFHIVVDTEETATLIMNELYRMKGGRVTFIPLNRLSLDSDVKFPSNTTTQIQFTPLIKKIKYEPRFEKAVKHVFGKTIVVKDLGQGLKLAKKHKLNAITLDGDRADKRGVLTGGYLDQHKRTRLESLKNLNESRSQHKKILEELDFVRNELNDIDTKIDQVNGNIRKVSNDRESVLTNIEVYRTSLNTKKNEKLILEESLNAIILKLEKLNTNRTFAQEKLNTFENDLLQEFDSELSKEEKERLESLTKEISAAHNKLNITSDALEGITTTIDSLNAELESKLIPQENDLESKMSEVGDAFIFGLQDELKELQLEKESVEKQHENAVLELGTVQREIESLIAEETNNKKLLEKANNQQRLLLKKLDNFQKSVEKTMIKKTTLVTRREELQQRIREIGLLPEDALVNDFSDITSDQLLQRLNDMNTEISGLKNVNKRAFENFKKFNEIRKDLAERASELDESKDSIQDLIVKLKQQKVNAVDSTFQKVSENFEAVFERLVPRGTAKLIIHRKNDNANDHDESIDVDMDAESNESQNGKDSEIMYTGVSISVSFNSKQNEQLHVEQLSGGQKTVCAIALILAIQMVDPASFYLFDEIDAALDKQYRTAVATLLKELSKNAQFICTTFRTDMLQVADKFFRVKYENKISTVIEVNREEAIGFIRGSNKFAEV

Smc3^QQ Q67C = target: T2, Smc3^QQ Q67C (S. cerevisiae, UniProt P47037 1-1230, Q67C | K112Q | K113Q); test: as above; details: partners not purified
T2 construct: Smc3, S. cerevisiae; source: S. cerevisiae W303, late G1 arrested cells, whole-cell extract
T2 sequence (looked up): T1 sequence (looked up) with I1008R

B1: Scc2 T1175C (natural protein, S. cerevisiae, UniProt Q04002 1-1493, looked up)
chain: MSYPGKDKNIPGRIIEALEDLPLSYLVPKDGLAALVNAPMRVSLPFDKTIFTSADDGRDVNINVLGTANSTTSSIKNEAEKERLVFKRPSNFTSSANSVDYVPTNFLEGLSPLAQSVLSTHKGLNDSINIEKKSEIVSRPEAKHKLESVTSNAGNLSFNDNSSNKKTKTSTGVTMTQANLAEQYLNDLKNILDIVGFDQNSAEIGNIEYWLQLPNKKFVLTTNCLTKLQMTIKNITDNPQLSNSIEITWLLRLLDVMVCNIKFSKSSLKMGLDDSMLRYIALLSTIVLFNIFLLGKNDSNLHRESYIMEPVNFLSDLIESLKILTIEYGSLKIEFDTFQEALELLPKYIRNGPFLDDNVTAKLVYIFSDLLMNNDIEATTNIQFQSFWDNVKRISSDILVSLFGSFDQQRGFIIEELLSHIEKLPTKRIQKKLRKVGNQNIYITDFTFTLMSMLENINCYSFCNQMKDIAPENIDLLKNEYKKQEEFLFNIVEHINDTILERFFKNPSALRYVIDNFVQDLLLLISSPQWPVTEKILSSLLKRLLSVYSPSMQVSANIETICLQLIGNIGSTIFDIKCSTRDHEDNNLIKMINYPETLPHFFKSFEECIAYNETIKCRRSATRFLWNLRLGTILILEEYTKDAKEQIITVDNELKKILEQIKDGGLGPELENREADFSTIKLDYFSILHAFELLNLYDPYLKLILSLLAKDKIKLRSTAIKCLSMLASKDKVILSNPMVKETIHRRLNDSSASVKDAILDLVSINSSYFEFYQQINNNYNDDSIMVRKHVLRINEKMYDETNDIVTKVYVIARILMKIEDEEDNIIDMARLILLNRWILKVHEVLDQPEKLKEISSSVLLVMSRVAIMNEKCSQLFDLFLNFYLLNKEAHSKEAYDKITHVLTILTDFLVQKIVELNSDDTNEKNSIVDKQNFLNLLAKFADSTVSFLTKDHITALYPYMVSDEKSDFHYYILQVFRCTFEKLANFKQKFLYDLETTLLSRLPKMNVREIDEAMPLIWSVATHRHDTARVAKACSSCLSHLHPYINKANNEEAAIVVDGKLQRLIYLSTGFARFCFPKPSNDKIAFLQEGETLYEHITKCLLVLSKDKITHVIRRVAVKNLTKLCGNHPKLFNSRHVLHLLDKEFQSDQLDIKLVILESLYDLFLLEERKSVRNCGVNSTLSSNSILKKKLLKTNRVEFANDGVCSALATRFLDNILQLCLLRDLKNSLVAIRLLKLILKFGYTNPSHSIPTVIALFASTSQYIRHVAYELLEDLFEKYETLVFSSLSRGVTKAIHYSIHTDEKYYYKHDHFLSLLEKLCGTGKKNGPKFFKVLKRIMQSYLDDITDLTSTNSSVQKSIFVLCTNISNITFVSQYDLVSLLKTIDLTTDRLKEVIMDEIGDNVSSLSVSEEKLSGIILIQLSLQDLGTYLLHLYGLRDDVLLLDIVEESELKNKQLPAKKPDISKFSAQLENIEQYSSNGKLLTYFRKHVKDT
notes: Scc2, S. cerevisiae; source: S. cerevisiae W303, in vivo, whole-cell extract
**Q.** What does the source list for B1?
**A.** crosslink relative to wild-type Smc3 (Smc3^QQ R1008I Q67C): ~40%; crosslink relative to wild-type Smc3 (Smc3^QQ Q67C): ~10%
